Experimental data from article PMC13147315.

Assays:
N_CTD = N_CTD (SARS-CoV-2 (Wuhan), UniProt P0DTC9 247-364); test: MST; settings: protein: recombinant, tags: 6xHis, chain copies: 2
[1] = biological target: T1, N_WT (nucleocapsid, Wuhan) (SARS-CoV-2 (Wuhan), UniProt P0DTC9 1-419); test: MST; settings: protein: recombinant, tags: 6xHis, chain copies: 2
[2] = biological target: T1, N_WT (nucleocapsid, Wuhan); test: EMSA; full binding at about 500 nM N; settings: protein: recombinant; tags: 6xHis; chain copies: 2
[3] = biological target: T1, N_WT (nucleocapsid, Wuhan); test: EMSA; 15-500 nM N; settings: protein: recombinant; tags: 6xHis; chain copies: 2; label: Cy5 on RNA2; 3' overhang 11 nt on strand 1
[4] = label: Cy5 (Methods EMSA: Cy3), blunt

B1: dsRNA3 (dsRNA)
RNA 1: AACCAUAACAUGACCAUGAGGUGCAG
RNA 2: CUGCACCUCAUGGUCAUGUUAUGGUU
- Kd (N_CTD; [4]): 2550 ± 567 nM
- Kd [1, 4]: 647 ± 151 nM

B2: dsRNA22 (dsRNA)
RNA 1: CAUAAUAAGAGGCUGGAUUUUUGGUA
RNA 2: UACCAAAAAUCCAGCCUCUUAUUAUG
- Kd (N_CTD; label: Cy5, blunt): 1840 ± 252 nM
- Kd ([1]; label: Cy5, blunt): 344 ± 132 nM

B3: DNA of Fig. S2F (mixed)
DNA 1: TTTCGGCCTCATCAGGTCATCGCTTTAGTGAGGGTTAATAAA
DNA 2: TTATTAACCCTCACTAAA
- binding result [2]: binds

Binder: UUCGUCCGGGUGUGACCGAAAGGUAA (ssRNA) [ssRNA20]
- Kd (N_CTD; label: Cy5): 8540 ± 4510 nM
- Kd ([1]; label: Cy5): 425 ± 186 nM

Binder: AACCAUAACAUGACCAUGAGGUGCAG (ssRNA) [ssRNA3]
- Kd (N_CTD; label: Cy5 (Methods EMSA: Cy3)): 4290 ± 427 nM
- Kd ([1]; label: Cy5 (Methods EMSA: Cy3)): 1260 ± 722 nM

B4: dsRNA20 (dsRNA)
RNA 1: UUCGUCCGGGUGUGACCGAAAGGUAA
RNA 2: UUACCUUUCGGUCACACCCGGACGAA
- Kd (N_CTD; label: Cy5, blunt): 3300 ± 394 nM
- Kd ([1]; label: Cy5, blunt): 398 ± 157 nM

B5: hybridized RNA2 (RNA2-Cy5/RNA7) (dsRNA)
RNA 1: CUGCACCUCAUGGUCAUGUUAUGGUU
RNA 2: GACCAUGAGGUGCAG
- binding result [3]: binds

Binder: CAUAAUAAGAGGCUGGAUUUUUGGUA (ssRNA) [ssRNA22]
- Kd (N_CTD; label: Cy5): 2730 ± 588 nM
- Kd ([1]; label: Cy5): 291 ± 121 nM
